From patent publication US20210388087A1 (Chugai, published 2021)

molecular target: T1, CD3 epsilon homodimer protein (UniProt P07766 23-126); assay: SPR, antibody over immobilised CD3e homodimer;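 also: SPR at 25 °C with CD3 epsilon homodimer amine-coupled to a CM4 sensor chip and antibody flowed over as analyte in HBS-EP+ running buffer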
T1 construct: also called CD3 (CD3 epsilon)
T1 sequence (P07766 23-126): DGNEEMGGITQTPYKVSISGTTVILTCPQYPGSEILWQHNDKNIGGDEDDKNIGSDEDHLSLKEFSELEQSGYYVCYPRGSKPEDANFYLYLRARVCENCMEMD

KD ratio to GLS3000	Binder
114	CE115HA000/GLS3000 K50D (antibody, IgG1, name in Kabat numbering, V domains shown, one-arm IgG1) VH: QVQLVESGGGVVQPGRSLRLSCAASGFTFSNAWMHWVRQAPGKGLEWVAQIKAKSNNYATYYAESVKGRFTISRDDSKNSLYLQMNSLKTEDTAVYYCRYVHYGAYYGVDAWGQGTTVTVSS VL: DIVMTQSPLSLPVTPGEPASISCRSSQSLVHSNRNTYLHWYQQKPGQAPRLLIYDVSNRFSGVPDRFSGSGSGTDFTLKISRVEAEDVGVYYCGQGTQVPYTFGQGTKLEIK
0.96	CE115HA000/GLS3000 L27bP (antibody, IgG1, name in Kabat numbering, V domains shown, one-arm IgG1) VH: QVQLVESGGGVVQPGRSLRLSCAASGFTFSNAWMHWVRQAPGKGLEWVAQIKAKSNNYATYYAESVKGRFTISRDDSKNSLYLQMNSLKTEDTAVYYCRYVHYGAYYGVDAWGQGTTVTVSS VL: DIVMTQSPLSLPVTPGEPASISCRSSQSPVHSNRNTYLHWYQQKPGQAPRLLIYKVSNRFSGVPDRFSGSGSGTDFTLKISRVEAEDVGVYYCGQGTQVPYTFGQGTKLEIK
0.95	CE115HA000/GLS3000 K107E (antibody, IgG1, name in Kabat numbering, V domains shown, one-arm IgG1) VH: QVQLVESGGGVVQPGRSLRLSCAASGFTFSNAWMHWVRQAPGKGLEWVAQIKAKSNNYATYYAESVKGRFTISRDDSKNSLYLQMNSLKTEDTAVYYCRYVHYGAYYGVDAWGQGTTVTVSS VL: DIVMTQSPLSLPVTPGEPASISCRSSQSLVHSNRNTYLHWYQQKPGQAPRLLIYKVSNRFSGVPDRFSGSGSGTDFTLKISRVEAEDVGVYYCGQGTQVPYTFGQGTKLEIE
1.31	CE115HA000/GLS3000 L27bM (antibody, IgG1, name in Kabat numbering, V domains shown, one-arm IgG1) VH: QVQLVESGGGVVQPGRSLRLSCAASGFTFSNAWMHWVRQAPGKGLEWVAQIKAKSNNYATYYAESVKGRFTISRDDSKNSLYLQMNSLKTEDTAVYYCRYVHYGAYYGVDAWGQGTTVTVSS VL: DIVMTQSPLSLPVTPGEPASISCRSSQSMVHSNRNTYLHWYQQKPGQAPRLLIYKVSNRFSGVPDRFSGSGSGTDFTLKISRVEAEDVGVYYCGQGTQVPYTFGQGTKLEIK
25.1	CE115HA000/GLS3000 K50T (antibody, IgG1, name in Kabat numbering, V domains shown, one-arm IgG1) VH: QVQLVESGGGVVQPGRSLRLSCAASGFTFSNAWMHWVRQAPGKGLEWVAQIKAKSNNYATYYAESVKGRFTISRDDSKNSLYLQMNSLKTEDTAVYYCRYVHYGAYYGVDAWGQGTTVTVSS VL: DIVMTQSPLSLPVTPGEPASISCRSSQSLVHSNRNTYLHWYQQKPGQAPRLLIYTVSNRFSGVPDRFSGSGSGTDFTLKISRVEAEDVGVYYCGQGTQVPYTFGQGTKLEIK
1.11	CE115HA000/GLS3000 L27bV (antibody, IgG1, name in Kabat numbering, V domains shown, one-arm IgG1) VH: QVQLVESGGGVVQPGRSLRLSCAASGFTFSNAWMHWVRQAPGKGLEWVAQIKAKSNNYATYYAESVKGRFTISRDDSKNSLYLQMNSLKTEDTAVYYCRYVHYGAYYGVDAWGQGTTVTVSS VL: DIVMTQSPLSLPVTPGEPASISCRSSQSVVHSNRNTYLHWYQQKPGQAPRLLIYKVSNRFSGVPDRFSGSGSGTDFTLKISRVEAEDVGVYYCGQGTQVPYTFGQGTKLEIK
36.4	CE115HA000/GLS3000 K50L (antibody, IgG1, name in Kabat numbering, V domains shown, one-arm IgG1) VH: QVQLVESGGGVVQPGRSLRLSCAASGFTFSNAWMHWVRQAPGKGLEWVAQIKAKSNNYATYYAESVKGRFTISRDDSKNSLYLQMNSLKTEDTAVYYCRYVHYGAYYGVDAWGQGTTVTVSS VL: DIVMTQSPLSLPVTPGEPASISCRSSQSLVHSNRNTYLHWYQQKPGQAPRLLIYLVSNRFSGVPDRFSGSGSGTDFTLKISRVEAEDVGVYYCGQGTQVPYTFGQGTKLEIK
57.2	CE115HA000/GLS3000 K50E (antibody, IgG1, name in Kabat numbering, V domains shown, one-arm IgG1) VH: QVQLVESGGGVVQPGRSLRLSCAASGFTFSNAWMHWVRQAPGKGLEWVAQIKAKSNNYATYYAESVKGRFTISRDDSKNSLYLQMNSLKTEDTAVYYCRYVHYGAYYGVDAWGQGTTVTVSS VL: DIVMTQSPLSLPVTPGEPASISCRSSQSLVHSNRNTYLHWYQQKPGQAPRLLIYEVSNRFSGVPDRFSGSGSGTDFTLKISRVEAEDVGVYYCGQGTQVPYTFGQGTKLEIK
27.7	CE115HA000/GLS3000 K50P (antibody, IgG1, name in Kabat numbering, V domains shown, one-arm IgG1) VH: QVQLVESGGGVVQPGRSLRLSCAASGFTFSNAWMHWVRQAPGKGLEWVAQIKAKSNNYATYYAESVKGRFTISRDDSKNSLYLQMNSLKTEDTAVYYCRYVHYGAYYGVDAWGQGTTVTVSS VL: DIVMTQSPLSLPVTPGEPASISCRSSQSLVHSNRNTYLHWYQQKPGQAPRLLIYPVSNRFSGVPDRFSGSGSGTDFTLKISRVEAEDVGVYYCGQGTQVPYTFGQGTKLEIK
0.9	CE115HA000/GLS3000 L27bS (antibody, IgG1, name in Kabat numbering, V domains shown, one-arm IgG1) VH: QVQLVESGGGVVQPGRSLRLSCAASGFTFSNAWMHWVRQAPGKGLEWVAQIKAKSNNYATYYAESVKGRFTISRDDSKNSLYLQMNSLKTEDTAVYYCRYVHYGAYYGVDAWGQGTTVTVSS VL: DIVMTQSPLSLPVTPGEPASISCRSSQSSVHSNRNTYLHWYQQKPGQAPRLLIYKVSNRFSGVPDRFSGSGSGTDFTLKISRVEAEDVGVYYCGQGTQVPYTFGQGTKLEIK
45.3	CE115HA000/GLS3000 K50S (antibody, IgG1, name in Kabat numbering, V domains shown, one-arm IgG1) VH: QVQLVESGGGVVQPGRSLRLSCAASGFTFSNAWMHWVRQAPGKGLEWVAQIKAKSNNYATYYAESVKGRFTISRDDSKNSLYLQMNSLKTEDTAVYYCRYVHYGAYYGVDAWGQGTTVTVSS VL: DIVMTQSPLSLPVTPGEPASISCRSSQSLVHSNRNTYLHWYQQKPGQAPRLLIYSVSNRFSGVPDRFSGSGSGTDFTLKISRVEAEDVGVYYCGQGTQVPYTFGQGTKLEIK

More lines, now with the values behind:

Binder	KD ratio to GLS3000
CE115HA000/GLS3000 K50Y (antibody, IgG1, name in Kabat numbering, V domains shown, one-arm IgG1) VH: QVQLVESGGGVVQPGRSLRLSCAASGFTFSNAWMHWVRQAPGKGLEWVAQIKAKSNNYATYYAESVKGRFTISRDDSKNSLYLQMNSLKTEDTAVYYCRYVHYGAYYGVDAWGQGTTVTVSS VL: DIVMTQSPLSLPVTPGEPASISCRSSQSLVHSNRNTYLHWYQQKPGQAPRLLIYYVSNRFSGVPDRFSGSGSGTDFTLKISRVEAEDVGVYYCGQGTQVPYTFGQGTKLEIK	195
CE115HA000/GLS3000 L27bE (antibody, IgG1, name in Kabat numbering, V domains shown, one-arm IgG1) VH: QVQLVESGGGVVQPGRSLRLSCAASGFTFSNAWMHWVRQAPGKGLEWVAQIKAKSNNYATYYAESVKGRFTISRDDSKNSLYLQMNSLKTEDTAVYYCRYVHYGAYYGVDAWGQGTTVTVSS VL: DIVMTQSPLSLPVTPGEPASISCRSSQSEVHSNRNTYLHWYQQKPGQAPRLLIYKVSNRFSGVPDRFSGSGSGTDFTLKISRVEAEDVGVYYCGQGTQVPYTFGQGTKLEIK	28.8
CE115HA000/GLS3000 K50G (antibody, IgG1, name in Kabat numbering, V domains shown, one-arm IgG1) VH: QVQLVESGGGVVQPGRSLRLSCAASGFTFSNAWMHWVRQAPGKGLEWVAQIKAKSNNYATYYAESVKGRFTISRDDSKNSLYLQMNSLKTEDTAVYYCRYVHYGAYYGVDAWGQGTTVTVSS VL: DIVMTQSPLSLPVTPGEPASISCRSSQSLVHSNRNTYLHWYQQKPGQAPRLLIYGVSNRFSGVPDRFSGSGSGTDFTLKISRVEAEDVGVYYCGQGTQVPYTFGQGTKLEIK	42.4
CE115HA000/GLS3000 K50R (antibody, IgG1, name in Kabat numbering, V domains shown, one-arm IgG1) VH: QVQLVESGGGVVQPGRSLRLSCAASGFTFSNAWMHWVRQAPGKGLEWVAQIKAKSNNYATYYAESVKGRFTISRDDSKNSLYLQMNSLKTEDTAVYYCRYVHYGAYYGVDAWGQGTTVTVSS VL: DIVMTQSPLSLPVTPGEPASISCRSSQSLVHSNRNTYLHWYQQKPGQAPRLLIYRVSNRFSGVPDRFSGSGSGTDFTLKISRVEAEDVGVYYCGQGTQVPYTFGQGTKLEIK	1.83
CE115HA000/GLS3000 K50Q (antibody, IgG1, name in Kabat numbering, V domains shown, one-arm IgG1) VH: QVQLVESGGGVVQPGRSLRLSCAASGFTFSNAWMHWVRQAPGKGLEWVAQIKAKSNNYATYYAESVKGRFTISRDDSKNSLYLQMNSLKTEDTAVYYCRYVHYGAYYGVDAWGQGTTVTVSS VL: DIVMTQSPLSLPVTPGEPASISCRSSQSLVHSNRNTYLHWYQQKPGQAPRLLIYQVSNRFSGVPDRFSGSGSGTDFTLKISRVEAEDVGVYYCGQGTQVPYTFGQGTKLEIK	8.13
CE115HA000/GLS3000 L27bW (antibody, IgG1, name in Kabat numbering, V domains shown, one-arm IgG1) VH: QVQLVESGGGVVQPGRSLRLSCAASGFTFSNAWMHWVRQAPGKGLEWVAQIKAKSNNYATYYAESVKGRFTISRDDSKNSLYLQMNSLKTEDTAVYYCRYVHYGAYYGVDAWGQGTTVTVSS VL: DIVMTQSPLSLPVTPGEPASISCRSSQSWVHSNRNTYLHWYQQKPGQAPRLLIYKVSNRFSGVPDRFSGSGSGTDFTLKISRVEAEDVGVYYCGQGTQVPYTFGQGTKLEIK	23.6
CE115HA000/GLS3000 L27bD (antibody, IgG1, name in Kabat numbering, V domains shown, one-arm IgG1) VH: QVQLVESGGGVVQPGRSLRLSCAASGFTFSNAWMHWVRQAPGKGLEWVAQIKAKSNNYATYYAESVKGRFTISRDDSKNSLYLQMNSLKTEDTAVYYCRYVHYGAYYGVDAWGQGTTVTVSS VL: DIVMTQSPLSLPVTPGEPASISCRSSQSDVHSNRNTYLHWYQQKPGQAPRLLIYKVSNRFSGVPDRFSGSGSGTDFTLKISRVEAEDVGVYYCGQGTQVPYTFGQGTKLEIK	25.1
CE115HA000/GLS3000 L27bI (antibody, IgG1, name in Kabat numbering, V domains shown, one-arm IgG1) VH: QVQLVESGGGVVQPGRSLRLSCAASGFTFSNAWMHWVRQAPGKGLEWVAQIKAKSNNYATYYAESVKGRFTISRDDSKNSLYLQMNSLKTEDTAVYYCRYVHYGAYYGVDAWGQGTTVTVSS VL: DIVMTQSPLSLPVTPGEPASISCRSSQSIVHSNRNTYLHWYQQKPGQAPRLLIYKVSNRFSGVPDRFSGSGSGTDFTLKISRVEAEDVGVYYCGQGTQVPYTFGQGTKLEIK	1.17
CE115HA000/GLS3000 L27bF (antibody, IgG1, name in Kabat numbering, V domains shown, one-arm IgG1) VH: QVQLVESGGGVVQPGRSLRLSCAASGFTFSNAWMHWVRQAPGKGLEWVAQIKAKSNNYATYYAESVKGRFTISRDDSKNSLYLQMNSLKTEDTAVYYCRYVHYGAYYGVDAWGQGTTVTVSS VL: DIVMTQSPLSLPVTPGEPASISCRSSQSFVHSNRNTYLHWYQQKPGQAPRLLIYKVSNRFSGVPDRFSGSGSGTDFTLKISRVEAEDVGVYYCGQGTQVPYTFGQGTKLEIK	2.67
CE115HA000/GLS3000 K74T (antibody, IgG1, name in Kabat numbering, V domains shown, one-arm IgG1) VH: QVQLVESGGGVVQPGRSLRLSCAASGFTFSNAWMHWVRQAPGKGLEWVAQIKAKSNNYATYYAESVKGRFTISRDDSKNSLYLQMNSLKTEDTAVYYCRYVHYGAYYGVDAWGQGTTVTVSS VL: DIVMTQSPLSLPVTPGEPASISCRSSQSLVHSNRNTYLHWYQQKPGQAPRLLIYKVSNRFSGVPDRFSGSGSGTDFTLTISRVEAEDVGVYYCGQGTQVPYTFGQGTKLEIK	0.85
